Several values for one entry are separate records, joined by “and”; a condition that tells them apart may be missing. Equal values may be shown once.
Tests used:
[1] = molecular target: T1, Recombinant human VEGF165 (human, UniProt P15692-4 27-191); experiment: SPR (BIAcore T100), VEGF165 on CM4 chip, 1:1 Langmuir model; scFv released from hexPLA formulation, release sample at 3 d
T1 construct: Immobilized on a CM4 sensor chip by amine coupling (about 500 RU)
Protocol: (§1) The affinity of the released ESBA903 monomer toward human VEGF was measured using surface plasmon resonance analysis in comparison to a fresh ESBA903 reference. For evaluation of the binding kinetics, surface plasmon resonance measurements using a BIAcore T100 were performed. Carboxymethylated dextran biosensor chips (CM4, GE HealthCare, Uppsala, Sweden) were activated with N-ethyl-N′-(3-dimethylaminopropyl) carbodiimide hydrochloride and N-hydroxysuccinimide according to the supplier's instructions. Recombinant human VEGF₁₆₅ (PeproTech EC Ltd., London, UK) was immobilized on a CM4 sensor chip using a standard amine-coupling procedure to achieve a response of approximately 500 resonance units. 2-fold serial dilutions (2.5-20 nM) of ESBA903 standard and formulation samples in HBS-EP buffer (10 mM HEPES, 150 mM NaCl, 3 mM EDTA, and 0.05% surfactant P20, pH 7.4) were injected into the flow cells at a flow rate of 30 μL/min for 5 minutes. Dissociation of the anti-VEGF scFv from the VEGF on the CM4 chip was allowed to proceed for 10 minutes. After each injection cycle, surfaces were regenerated with 2 injections of 100 mM NaOH.
(§2) The apparent dissociation (kd) and association (kₐ) rate constants and the apparent dissociation equilibrium constant (KD) were calculated with BIAcore T100 evaluation Software version 2.0.1 using a one-to-one Langmuir binding model (Biacore Inc., Uppsala, Sweden).

[2] = molecular target: T1, Recombinant human VEGF165; experiment: SPR (BIAcore T100), VEGF165 on CM4 chip, 1:1 Langmuir model; scFv released from hexPLA formulation, release sample at 4 w
Protocol: as §1, §2

[3] = molecular target: T1, Recombinant human VEGF165; experiment: SPR (BIAcore T100), VEGF165 on CM4 chip, 1:1 Langmuir model; scFv released from hexPLA formulation, release sample at 14 w
Protocol: as §1, §2

[4] = molecular target: T1, Recombinant human VEGF165; experiment: SPR (BIAcore T100), VEGF165 amine-coupled on CM4 chip, scFv 2.5-20 nM injected, 1:1 Langmuir model; fresh reference, time 0
Protocol: as §1, §2

T1 sequence (P15692 other isoform, or with tags, fused parts or gaps limits assumed): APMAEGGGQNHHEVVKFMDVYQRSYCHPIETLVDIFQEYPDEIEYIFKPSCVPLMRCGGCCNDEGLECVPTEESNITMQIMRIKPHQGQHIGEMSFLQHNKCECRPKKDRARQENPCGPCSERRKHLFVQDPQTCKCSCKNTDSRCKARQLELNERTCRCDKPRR

Kd [1]: 59.4 pM and 68.5 pM and 48.9 pM
koff [1]: 2.77e-05 s⁻¹ and 3e-05 s⁻¹ and 2.59e-05 s⁻¹
kon [1]: 465000 M⁻¹ s⁻¹ and 439000 M⁻¹ s⁻¹ and 529000 M⁻¹ s⁻¹
Kd [2]: 64.3 pM and 52.1 pM and 55.2 pM
koff [2]: 3.56e-05 s⁻¹ and 3.03e-05 s⁻¹ and 2.34e-05 s⁻¹
kon [2]: 554000 M⁻¹ s⁻¹ and 582000 M⁻¹ s⁻¹ and 424000 M⁻¹ s⁻¹
Kd [3]: 76.2 pM and 66 pM and 82.6 pM
koff [3]: 3.11e-05 s⁻¹ and 2.78e-05 s⁻¹ and 3.37e-05 s⁻¹
kon [3]: 407000 M⁻¹ s⁻¹ and 421000 M⁻¹ s⁻¹ and 408000 M⁻¹ s⁻¹
Kd [4]: 25.6 pM
koff [4]: 2.45e-05 s⁻¹
kon [4]: 956000 M⁻¹ s⁻¹
B1: ESBA903 (scFv)
scFv: EIVMTQSPSTLSASVGDRVIITCQASEIIHSWLAWYQQKPGKAPKLLIYLASTLASGVPSRFSGSGSGAEFTLTISSLQPDDFATYYCQNVYLASTNGANFGQGTKLTVLGGGGGSGGGGSGGGGSGGGGSEVQLVESGGGLVQPGGSLRLSCTASGFSLTDYYYMTWVRQAPGKGLEWVGFIDPDDDPYYATWAKGRFTISRDTSKNTVYLQMNSLRAEDTAVYYCAGGDHNSGWGLDIWGQGTLVTVSS
notes: Monomeric scFv (about 25 kDa); same protein in all samples; also called humanized antibody-fragment ESBA903; humanized VEGF-antibody fragment ESBA903
